# Data reported in article PMC3610674.
# Read-outs that look alike come from different tables or passages of the source.
# Key:
# [1] = molecular target: proNS5-HA (proteolytically-processed HA-tagged DENV2 NS5) (dengue virus serotype 2 (DENV2)); assay: co-IP
# [2] = molecular target: proNS5-HA (proteolytically-processed HA-tagged DENV2 NS5) (dengue virus serotype 2 (DENV2)); assay: co-IP; remark: listed apart in the source
substance,measurement,setting,value
"UBR4 (human, endogenous) (from UniProt Q5T4S7 1-5183) (natural protein)",fold UBR4 precipitated against NS5-HA (densitometry),[1],2 fold
same,fold UBR4 precipitated against NS5-HA (densitometry),[2],7 fold
